Where only a bound is given, the exact number is not on record here.

The experiment addresses HLA-A*02:01. Put plainly: IEDB peptide-MHC binding, purified MHC/competitive/radioactivity; ≥ and ≤ were set here for values at or beyond the usual limits of such assays. To be noted: source organism: Mycobacterium tuberculosis H37Rv.
For the sequence TEVGQDQYV, the IC50 was ≥ 250 µM.
To GLWLSVAAV belongs 0.11 µM; to GSFVRTVSL, 59 µM.
The figure for RTVSLPVGA is 2.5 µM; for QAQTRHPAT it is ≥ 250 µM.
On to ELAAEPTEV, for which the IC50 worked out at 1.8 µM.
Regarding HVYAHQAQT, the IC50 was 5.5 µM.
Take LTRAILIRV: the IC50 turned out to be 53 µM.
To AYGSFVRTV belongs 13 µM; to ALLALTRAI, 0.42 µM.
